Assay results as given in US12691186B2, “B7-H3 miniproteins, conjugates, and uses thereof” (priority 2023, dated 2026).

Legend:
[1] = In vitro metabolic stability, kidney brush border membrane preparations (KBBM); type: in vitro ADME; parameters: unit not given here; settings: mouse kidney brush border membrane preparation, 37° C.
Description: (§1) Exemplary miniprotein conjugates were spiked into biological matrices at initial concentration between 1-2 μM. Tested matrices were varied by species (mouse, rat, human) and type (plasma, serum, and kidney brush border membrane preparations tested each from 0.625-100 μg/mL protein content). Tested conditions were incubated with TAs at 37° C. for 4 hours. At collection points of 0, 15, 30, 60, 120, 240 minutes, 50 μL of each condition were quenched by organic solvent (methanol or acetonitrile) or the addition of 4% phosphoric acid solution. Fractions of each quenched timepoint were subsequently assayed for parent TA concentration by high resolution LC-MS. Percent-parent-remaining-time plots were constructed from the ratio of each given time collection to the time-zero parent TA. Percent-parent-remaining in mouse serum and plasma for exemplary miniproteins are recorded in Table 8.

[2] = In vitro metabolic stability, plasma; type: in vitro ADME; parameters: unit not given here; settings: 37° C.
Description: as §1

C303 (CAREKIAALSEIIWLPCLTYAQIXAFIAALNDDPCQSANILSEAXELCS; DOTA-PEG4 N-term, methyllysines, C-amide; SITE 24 monomethyllysine; SITE 45 monomethyllysine) [Compound C303]
In vitro Stability (mouse) - KBBM [1]: >12 | In vitro Stability (mouse) - Plasma [2]: >12

C305 (CAXEKIAALSEIIWLPCLTYAQIXAFIAALNDDPCQSSEILSEAXELCS; DOTA-PEG4 N-term, methylated lysines, C-amide; SITE 3 trimethyllysine; SITE 24 monomethyllysine; SITE 45 monomethyllysine) [Compound C305]
In vitro Stability (mouse) - KBBM [1]: >12 | In vitro Stability (mouse) - Plasma [2]: >12

C307 (CAXEKIAALSEIIWLPCLTYAQIXAFIXALNDDPCQSSEILSEAXELCS; DOTA-PEG4 N-term, methylated lysines, C-amide; SITE 3 trimethyllysine; SITE 24 monomethyllysine; SITE 28 monomethyllysine; SITE 45 monomethyllysine) [Compound C307]
In vitro Stability (mouse) - KBBM [1]: >12 | In vitro Stability (mouse) - Plasma [2]: >12

C311 (CAXEKIAALSEIIWLPCLNYAQIXAFIAALNDDPCQSSEILSEAXELCS; DOTA-PEG4 N-term, methylated lysines, C-amide; SITE 3 trimethyllysine; SITE 24 monomethyllysine; SITE 45 monomethyllysine) [Compound C311]
In vitro Stability (mouse) - KBBM [1]: >12 | In vitro Stability (mouse) - Plasma [2]: >12

C313 (CAXEKIAALSEIIWLPCLTYAQIXAFIAALNDDPCNSSEILSEAXELCS; DOTA-PEG4 N-term, methylated lysines, C-amide; SITE 3 trimethyllysine; SITE 24 monomethyllysine; SITE 45 monomethyllysine) [Compound C313]
In vitro Stability (mouse) - KBBM [1]: >12 | In vitro Stability (mouse) - Plasma [2]: >12

C317 (CAXEKIAALSEIIWLPCLTYAQIXAFIARLNDDPCQSAEILSEAXELCS; DOTA-PEG4 N-term, methylarginine, methyllysines, C-amide; SITE 3 Rme; SITE 24 monomethyllysine; SITE 45 monomethyllysine) [Compound C317]
In vitro Stability (mouse) - Plasma [2]: >12

C319 (CAXEKIAALSEIIWLPCLTYAQIXAFIAXLNXDPCQSSEILSEAXELCS; DOTA-PEG4 N-term, methyllysines, citrulline, C-amide; SITE 3 trimethyllysine; SITE 24 dimethyllysine; SITE 29 monomethyllysine; SITE 32 citrulline; SITE 45 monomethyllysine) [Compound C319]
In vitro Stability (mouse) - KBBM [1]: >12 | In vitro Stability (mouse) - Plasma [2]: >12

C349 (CAREKIAALSEIIWLPCLTYAQIXAFIAALNDDPCQSAEILSEAQELCS; DOTA-PEG4, methyl-Lys, C-terminal amide; SITE 24 monomethyllysine) [Compound C349]
In vitro Stability (mouse) - KBBM [1]: >12 | In vitro Stability (mouse) - Plasma [2]: >12

C354 (CAREKIAALSEIIWLPCLTYAQIXAFIAALNDDPCQSSEILSEAXELCS; not fully specified; DOTA-PEG4, methyl-Lys, C-terminal amide; SITE 24 monomethyllysine; SITE 45 monomethyllysine) [Compound C354]
In vitro Stability (mouse) - KBBM [1]: >12 | In vitro Stability (mouse) - Plasma [2]: >12

C467 (CAREKINALGEIIWLPCLTYDQIXAFIAALNDDPCQSSEILSEAXELCS; not fully specified; DOTA-PEG4, methyl-Lys, C-terminal amide; SITE 24 monomethyllysine; SITE 45 monomethyllysine) [Compound C467]
In vitro Stability (mouse) - KBBM [1]: >12 | In vitro Stability (mouse) - Plasma [2]: >12

C493 (CAREKINALGEIIWLPCLTYDQIXAFIAXLNDDPCQSSEILSEAXELCS; not fully specified; DOTA-PEG4, methyl-Lys, C-terminal amide; SITE 24 monomethyllysine; SITE 29 monomethyllysine; SITE 45 monomethyllysine) [Compound C493]
In vitro Stability (mouse) - KBBM [1]: >12 | In vitro Stability (mouse) - Plasma [2]: >12
